Assay results published in patent US20240327505A1 (published 2024).

Experiments:
SARS-CoV-2 S2 protein = SARS-CoV-2 S2 protein (SARS-CoV-2, UniProt P0DTC2 686-1213)
[1] = molecular target: SARS-CoV-2 spike S1 protein (SARS-CoV-2, UniProt P0DTC2 16-685)
[2] = molecular target: SARS-CoV-2 spike receptor-binding domain (RBD) (SARS-CoV-2, UniProt P0DTC2 319-541)
[3] = molecular target: SARS-CoV-2 Spike (S) trimer (SARS-CoV-2, UniProt P0DTC2 16-1213); assay: ELISA on coated S trimer, 1:50
[4] = molecular target: SARS-CoV-2 spike S1 protein (SARS-CoV-2, UniProt P0DTC2 16-685); remark: listed apart in the source
[5] = molecular target: SARS-CoV-2 spike receptor-binding domain (RBD) (SARS-CoV-2, UniProt P0DTC2 319-541); remark: listed apart in the source

B1: AB-009273 (antibody, V domains shown)
VH: QVQLVQSGAEVKKPGSSVKVSCKASGGTFSSYAISWVRQAPGQGLEWMGGIIPIFGTANYAQKFQGRVTITTDESTSTAYMELSSLRSEDTAVYYCARVGVYDSSGYYFDYWGQGTLVTVSS
VL: EIVLTQSPATLSLSPGERATLSCRASQSVSSYLAWYQQKPGQAPRLLIYDASNRATGIPARFSGSGSGTDFTLTISSLEPEDFAVYYCQQRSNWPPRLTFGGGTKVEIK
Work on B1 yielded a Kd (SARS-CoV-2 S2 protein) of 6.87 nM, a koff (SARS-CoV-2 S2 protein) of 0.000148 s⁻¹ and a kon (SARS-CoV-2 S2 protein) of 21500 M⁻¹ s⁻¹.

B2: AB-009631 (antibody, V domains shown)
VH: EVQLVESGGGLVQPGGSLRLSCAASGFNFSFYWMSWVRQAPGKGLEWVANIKQDGSEKYYVDSVKGRFTISRDNAKNSLYLQMNSLRAEDTAVYYCARLSGGSWYFDYWGQGTLVTVSS
VL: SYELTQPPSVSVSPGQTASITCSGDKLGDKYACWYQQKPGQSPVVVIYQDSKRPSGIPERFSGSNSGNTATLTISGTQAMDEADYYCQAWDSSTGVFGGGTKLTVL
B2 gave a Kd (SARS-CoV-2 S2 protein) of 0.0273 nM, a koff (SARS-CoV-2 S2 protein) of 3.31e-07 s⁻¹ and a kon (SARS-CoV-2 S2 protein) of 12100 M⁻¹ s⁻¹.

B3: AB-009676 (antibody, V domains shown)
VH: QVQLQQWGAGLLKPSETLSLTCAVYGGSFSGYYWSWIRQPPGKGLEWIGEINHSGSTNYNPSLKSRVTISVDTSKNQFSLKLSSVTAADTAVYYCARLSRQWLVRPHIYYFDYWGQGTLVTVSS
VL: DIQMTQSPSTLSASVGDRVTITCRASQSVSSYLNWYQQKPGKAPKLLIYAASSLQSGVPSRFSGSGSGTDFTLTISSLQPEDFATYFCQQSYSTPRTFGQGTKLEIK
In the case of B3, the Kd (SARS-CoV-2 S2 protein) is reported as 0.0456 nM, the koff (SARS-CoV-2 S2 protein) is reported as 3.12e-07 s⁻¹ and the kon (SARS-CoV-2 S2 protein) is reported as 6840 M⁻¹ s⁻¹.

B4: AB-009710 (antibody, V domains shown)
VH: LVQLIQSGAEVVKPGSSVKVSCTASGGSYSSYTLSWVRQAPGQGVEWLGRISPVLNTTYYAQKLEGRVTMTADESTSTVYMQLSSLRSEDTAVYYCARLASMNGVDIWGQGTSVTVSS
VL: EIVLTQSPGTLSLSPGERATLSCRASQSVYGSYLAWYQQKPGQAPRLLIYGGSSRATGIPDRFSGSGSGTDFTLTISRLEPEDFAVYYCHQYGTSRYSFGQGTKLDIK
Work on B4 yielded a Kd (SARS-CoV-2 S2 protein) of 46.8 nM, a koff (SARS-CoV-2 S2 protein) of 0.000591 s⁻¹ and a kon (SARS-CoV-2 S2 protein) of 12600 M⁻¹ s⁻¹.

B5: AB-009251 (antibody, V domains shown)
V domain 1: QVQLVQSGAEVKKPGASVKVSCKTSGYTFTTFYIHWVRQVPGQGLEWMGIINPDGGSTNYAQEFQARVTMTTDTSTSTAYMELSSLRFEDTAVFYCATSLGAPPGLSPRTGPQRRGPPGFDFWGQGTLITVSA
V domain 2: QSVLTQPPSVSGAPGQRVTISCTGSSSNIGAGYDVHWYQQLPGTAPKLLIFDNNNRPSGVPYRFSGSRSGTSASLAITGLQPEDEADYYCQSYDSSLSGRVFGGGTRVTVL
With B5 the Kd [1] was 48.1 nM, the koff [1] was 0.000544 s⁻¹ and the kon [1] was 11300 M⁻¹ s⁻¹. The Kd [2] was 9.31 nM, the koff [2] was 0.000469 s⁻¹ and the kon [2] was 50400 M⁻¹ s⁻¹. For the same binder, the “OD 450 nm” value [3] was 0.886 OD.

B6: AB-009271 (antibody, V domains shown)
VH: EVQLVESGGGLIQPGGSLRLSCAASGFIVSSNYMSWVRQAPGKGLEWVSVIYSGGSTYYADSVKGRFTISRDNSKNTLYLQMNSLRAEDTAVYYCARDYGDFYFDYWGQGTLVTVSS
VL: EIVMTQSPATLSVSPGERATLSCRASQSVSSNLAWYQQKPGQAPRLLIYGASTRATGIPARFSGSGSGTEFTLTISSLQSEDFAVYYCQQYYNWPRTFGQGTKVEIK
B6 was tested, and the Kd [4] was 55.4 nM, the koff [4] was 0.0042 s⁻¹ and the kon [4] was 75900 M⁻¹ s⁻¹. For the same binder, the Kd [5] was 15.1 nM, the koff [5] was 0.00141 s⁻¹ and the kon [5] was 93200 M⁻¹ s⁻¹.

B7: AB-010020 (antibody, V domains shown)
VH: QMQLVQSGPEVKKPGTSVKVSCKASGFTFTSSAVQWVRQARGQRLEWIGWIVVGSGNTNYAQKFQERVTITRDMSTSTAYMELSSLRSEDTAVYYCAAPACSSTSCYDGFDIWGQGTMVTVSS
VL: not shown
B7 gave a Kd [4] of 13.5 nM, a koff [4] of 0.0069 s⁻¹ and a kon [4] of 512000 M⁻¹ s⁻¹. It also gave a Kd [5] of 2.16 nM, a koff [5] of 0.00212 s⁻¹ and a kon [5] of 980000 M⁻¹ s⁻¹.

B8: AB-009283 (antibody, V domains shown)
VH: EVQLVESGGGLIQPGGSLRLSCAASGFTVSSNYMSWVRQAPGKGLEWVSVIYSGGSTYYADSVKGRFTISRDNSKNTLYLQMNSLRAEDTAVYYCATSSFDYYYYFMDVWGKGTTVTVSS
VL: SYELTQPPSVSVSPGQTASITCSGDKLGDKYACWYHQKPGQSPVLVIYQDTKRPSGIPERFSASNSGNTATLTISGTQALDEADYYCQAWDSSIVVFGGGTKLTVL
For B8, the Kd (SARS-CoV-2 S2 protein) was 22.7 nM, the koff (SARS-CoV-2 S2 protein) was 0.000319 s⁻¹ and the kon (SARS-CoV-2 S2 protein) was 14100 M⁻¹ s⁻¹.
